Test results from article PMC11141937 (JCI Insight, 2024).

Columns and labels:
[1] = molecular target: SARS-CoV-2 Delta S protein ectodomain (SARS-CoV-2 Delta (B.1.617.2), strain); assay: BLI; settings: both partners purified
[2] = molecular target: SARS-CoV-2 Omicron BA.2 S protein ectodomain (SARS-CoV-2 Omicron BA.2, strain); assay: BLI; settings: both partners purified
[3] = molecular target: SARS-CoV-2 Delta S protein on S-293T cells (SARS-CoV-2 Delta (B.1.617.2), strain); assay: flow cytometry on cells; settings: one partner purified
[4] = molecular target: SARS-CoV-2 Omicron BA.1 S protein on S-293T cells (SARS-CoV-2 Omicron BA.1, strain); assay: flow cytometry on cells; settings: one partner purified
[5] = molecular target: SARS-CoV-2 Omicron BA.2 S protein on S-293T cells (SARS-CoV-2 Omicron BA.2, strain); assay: flow cytometry on cells; settings: one partner purified
[6] = molecular target: SARS-CoV-2 Omicron BA.4/5 S protein on S-293T cells (SARS-CoV-2 Omicron BA.4/5, strain); assay: flow cytometry on cells; settings: one partner purified

Measured: binding result

B1: O5C2 mAb (antibody, V domains shown)
VH: EVQLVESGGGLIQPGGSLRLSCAASGIIVSRNYMSWVRQAPGKGLEWVSILYAGGSSFYAEPVQGRFTVSRDNSKNTLFLEMNSLRVEDTAVYYCARDLQWGIDIWGQGAMVTVSS
VL: DIQMTQTPPSLSASVGDRVSISCRASQSTGSWLAWYQQKPGKAPKLLIYKTSSLESGVPSRFSGSGSGTEFTLTISSLQPDDVATYYCQHYDTYSSTFGQGTKVEIK
binds: [1] | [2] | [3] | [4] | [5] | [6]
